Source: patent US20090022714A1, “Combination methods of inhibiting tumor growth with a vascular endothelial growth factor receptor antagonist” (ImClone Systems, Inc., priority 2001, published 2009)

Target: chimeric receptor mouse flk-1 (VEGFR-2)/human fms expressed on transfected 3T3 cells (C441) (mouse; human) (UniProt P35918)
Experiment: cell-based or functional assay

Chain of chimeric receptor mouse flk-1 (VEGFR-2)/human fms expressed on transfected 3T3 cells (C441) (mouse; human) (P35918 other isoform, or with tags, fused parts or gaps mutant limits assumed): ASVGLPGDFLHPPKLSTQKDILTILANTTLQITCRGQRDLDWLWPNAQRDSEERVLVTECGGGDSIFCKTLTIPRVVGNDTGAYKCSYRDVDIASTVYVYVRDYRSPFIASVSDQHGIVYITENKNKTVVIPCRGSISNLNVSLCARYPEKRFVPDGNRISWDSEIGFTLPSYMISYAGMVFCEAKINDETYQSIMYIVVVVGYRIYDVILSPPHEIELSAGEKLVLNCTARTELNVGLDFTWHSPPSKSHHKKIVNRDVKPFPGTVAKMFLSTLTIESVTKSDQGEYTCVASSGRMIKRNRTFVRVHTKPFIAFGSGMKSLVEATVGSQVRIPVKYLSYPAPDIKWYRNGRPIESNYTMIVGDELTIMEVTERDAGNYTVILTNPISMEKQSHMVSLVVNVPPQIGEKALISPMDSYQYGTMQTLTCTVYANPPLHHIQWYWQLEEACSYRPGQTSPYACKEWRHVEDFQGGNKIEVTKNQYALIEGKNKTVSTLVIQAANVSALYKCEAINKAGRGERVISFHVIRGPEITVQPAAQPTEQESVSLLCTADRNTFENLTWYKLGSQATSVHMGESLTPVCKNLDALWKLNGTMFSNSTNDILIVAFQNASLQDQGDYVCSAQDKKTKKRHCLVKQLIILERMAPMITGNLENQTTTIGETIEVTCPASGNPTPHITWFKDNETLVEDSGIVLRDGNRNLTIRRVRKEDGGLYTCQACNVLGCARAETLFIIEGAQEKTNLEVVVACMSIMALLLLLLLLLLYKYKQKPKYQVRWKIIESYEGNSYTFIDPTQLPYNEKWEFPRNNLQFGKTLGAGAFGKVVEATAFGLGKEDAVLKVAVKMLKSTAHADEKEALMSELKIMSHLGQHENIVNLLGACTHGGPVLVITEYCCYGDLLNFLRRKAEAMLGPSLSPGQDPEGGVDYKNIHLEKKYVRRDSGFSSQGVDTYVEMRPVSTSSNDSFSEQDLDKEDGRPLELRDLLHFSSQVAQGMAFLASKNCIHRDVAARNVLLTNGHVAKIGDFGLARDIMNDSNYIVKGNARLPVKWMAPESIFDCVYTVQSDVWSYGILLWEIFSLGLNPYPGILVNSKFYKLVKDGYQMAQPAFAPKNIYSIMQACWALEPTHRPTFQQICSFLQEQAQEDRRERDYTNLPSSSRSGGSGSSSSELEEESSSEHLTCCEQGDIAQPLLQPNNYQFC

inhibition of receptor activation by ligand: < 1 µg/mL
inhibition of receptor activation by ligand, prebound antibody: < 1 µg/mL
phosphorylation level relative to the fully stimulated receptor control, antibody added with ligand (densitometry): 40%
phosphorylation level relative to the fully stimulated receptor control, antibody prebound (densitometry): 6%
phosphorylation of flk-1 (VEGFR-2), competitive antibody titration: > 0.5 µg/mL
B1: rat anti-mouse flk-1 (VEGFR-2) monoclonal antibody DC-101 (antibody, from another filing, rat IgG1, V domains shown)
VH: EVQLVETGGGLVQPGNSLKLSCATSGFIFSTTWMNWIRQTPGKRLEWLAQIEDKSNNYFISYSESVKGRFTISRDDSKSSVYLQMNNLKEEDTAIYYCSWKYRSNYYFDYWGQGVMVTVSS
VL: DIVLTQSPALAVSLEQRATISCKTSQNVDYYGISYLHWYQQKPGQQPKLLIYEGSNLASGIPARFSGSGSGTDFTLTIDPVEADDIVTYYCQQSKDYPYTFGAGTKLELKR
